Data from publication doi:10.1101/2025.07.21.665923 (bioRxiv, 2025).
Like-named read-outs stand apart in the source and are kept apart here. Where no end group is shown, it is not given here. TAMRA = tetramethylrhodamine

What was measured:
[1] = target: NaPi-IIa peptide (15 C-terminal residues of NaPi-IIa), TAMRA-labelled (human (identical in mouse)); assay: fluorescence polarisation
[2] = target: N-terminally biotinylated URAT1 peptide (human); assay: SPR
[3] = target: URAT1 peptide (15 C-terminal residues of human URAT1), TAMRA-labelled (human); assay: fluorescence polarisation
[4] = target: T1, full-length human NHERF1 (human, UniProt O14745 1-358); assay: fluorescence polarisation
T1 sequence (looked up): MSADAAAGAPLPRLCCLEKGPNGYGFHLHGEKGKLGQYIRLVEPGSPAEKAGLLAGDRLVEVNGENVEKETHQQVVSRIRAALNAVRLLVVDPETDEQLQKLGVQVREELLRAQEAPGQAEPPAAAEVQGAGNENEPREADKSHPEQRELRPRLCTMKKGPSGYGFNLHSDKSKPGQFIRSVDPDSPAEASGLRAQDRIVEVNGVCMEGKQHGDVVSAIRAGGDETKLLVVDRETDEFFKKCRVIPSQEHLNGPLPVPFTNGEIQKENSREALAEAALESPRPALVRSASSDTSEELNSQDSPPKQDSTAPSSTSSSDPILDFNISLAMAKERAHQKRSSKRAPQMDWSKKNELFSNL

[5] = target: T2, full-length mouse Nherf1 (mouse, UniProt P70441 1-355); assay: fluorescence polarisation
T2 sequence (looked up): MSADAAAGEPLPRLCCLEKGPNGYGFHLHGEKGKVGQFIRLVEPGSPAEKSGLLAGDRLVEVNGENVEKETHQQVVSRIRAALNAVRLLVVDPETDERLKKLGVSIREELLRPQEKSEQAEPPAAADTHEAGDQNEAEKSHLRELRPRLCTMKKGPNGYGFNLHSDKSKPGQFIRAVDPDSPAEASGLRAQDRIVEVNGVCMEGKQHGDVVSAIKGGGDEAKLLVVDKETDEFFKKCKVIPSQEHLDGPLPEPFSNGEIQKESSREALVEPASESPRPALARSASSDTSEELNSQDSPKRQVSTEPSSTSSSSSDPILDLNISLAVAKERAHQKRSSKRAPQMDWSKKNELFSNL

[6] = target: T3, full-length mouse Pdzk1 (mouse, UniProt Q9JIL4 1-519); assay: fluorescence polarisation
T3 sequence (looked up): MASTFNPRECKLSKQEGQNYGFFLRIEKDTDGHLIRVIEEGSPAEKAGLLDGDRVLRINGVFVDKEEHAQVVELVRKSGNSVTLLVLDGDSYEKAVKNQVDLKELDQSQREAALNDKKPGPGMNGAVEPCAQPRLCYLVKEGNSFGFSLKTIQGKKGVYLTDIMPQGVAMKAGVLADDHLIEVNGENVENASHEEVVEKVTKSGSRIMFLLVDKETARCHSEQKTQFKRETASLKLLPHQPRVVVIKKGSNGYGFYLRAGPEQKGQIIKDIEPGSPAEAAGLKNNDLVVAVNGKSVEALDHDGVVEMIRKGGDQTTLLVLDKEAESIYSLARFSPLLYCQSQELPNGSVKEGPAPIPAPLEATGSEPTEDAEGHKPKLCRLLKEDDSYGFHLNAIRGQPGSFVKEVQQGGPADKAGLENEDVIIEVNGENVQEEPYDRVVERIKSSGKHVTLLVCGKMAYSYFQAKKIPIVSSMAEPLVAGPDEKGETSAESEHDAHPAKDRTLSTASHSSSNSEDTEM

[7] = target: T4, full-length human PDZK1 (NHE3 regulatory factor 3, NHERF3) (human, UniProt Q5T2W1 1-519); assay: fluorescence polarisation
T4 sequence (looked up): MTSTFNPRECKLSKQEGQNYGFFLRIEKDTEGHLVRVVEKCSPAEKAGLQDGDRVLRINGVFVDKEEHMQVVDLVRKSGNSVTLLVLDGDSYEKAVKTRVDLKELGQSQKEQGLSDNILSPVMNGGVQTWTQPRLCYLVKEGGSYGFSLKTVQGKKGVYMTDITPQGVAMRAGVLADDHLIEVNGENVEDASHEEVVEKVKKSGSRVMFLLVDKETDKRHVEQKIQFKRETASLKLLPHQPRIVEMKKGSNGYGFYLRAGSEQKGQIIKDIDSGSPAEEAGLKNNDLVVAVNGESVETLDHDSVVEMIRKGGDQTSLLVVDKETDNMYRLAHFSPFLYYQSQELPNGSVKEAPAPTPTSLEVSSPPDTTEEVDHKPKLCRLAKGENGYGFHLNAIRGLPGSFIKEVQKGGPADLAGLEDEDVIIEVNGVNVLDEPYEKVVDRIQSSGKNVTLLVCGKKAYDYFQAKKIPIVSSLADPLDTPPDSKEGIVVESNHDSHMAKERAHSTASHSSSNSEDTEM

[8] = target: T4, full-length human PDZK1 (NHE3 …); assay: SEC
[9] = target: T4, full-length human PDZK1 (NHE3 …); assay: SEC; remark: listed apart in the source

PDZ1 domain of human NHERF1 (1PDZ1), C-terminal His8-tag (domain or fragment)
Kd [1]: 4.4 µM

PDZ1 domain of human PDZK1 (3PDZ1), tag-less (domain or fragment)
Kd [2]: 1.1 µM
koff [2]: 0.494 s⁻¹
kon [2]: 448000 M⁻¹ s⁻¹
Kd [3]: 0.16 µM
Kd [1]: 12.5 µM

PDZ2 domain of human NHERF1 (1PDZ2), C-terminal His8-tag (domain or fragment)
Kd [1]: > 170 µM

PDZ2 domain of human PDZK1 (3PDZ2), C-terminal His8-tag (domain or fragment)
Kd [3]: 22.1 µM

PDZ3 domain of human PDZK1 (3PDZ3), C-terminal His8-tag (domain or fragment)
Kd [3]: > 200 µM

PDZ4 domain of human PDZK1 (3PDZ4), C-terminal His8-tag (domain or fragment)
Kd [2]: 1.78 µM
koff [2]: 0.631 s⁻¹
kon [2]: 354000 M⁻¹ s⁻¹
Kd [3]: 1.35 µM

B1: URAT1 peptide (15 C-terminal residues of human URAT1), TAMRA-labelled (peptide)
peptide: {TAMRA}-THGTLGNSVLKSTQF
Kd [4]: > 70 µM

B2: Urat1 peptide (15 C-terminal residues of murine Urat1), TAMRA-labelled (peptide)
peptide: {TAMRA}-THDTPDGSILMSTRL
Kd [5]: 0.59 µM
Kd [6]: 0.026 µM

B3: NaPi-IIa peptide (15 C-terminal residues of NaPi-IIa), TAMRA-labelled (peptide)
peptide: {TAMRA}-SPRLALPAHHNATRL
Kd [5]: 4.9 µM
Kd [6]: 4 µM
Kd [7]: 8.1 µM
Kd [4]: 4 µM

B4: URAT1 peptide fused to the C-terminus of enhanced green fluorescent protein (GFP^URAT1) (peptide)
chain: THGTLGNSVLKSTQF
modifications: not fully specified
stoichiometry N [8]: 1.4 GFP^URAT1 per PDZK1 at the peak maximum
stoichiometry N [9]: 1.5 GFP^URAT1 per PDZK1 at the peak maximum
